According to paper doi:10.1101/127183:

Key:
[1] = molecular target: Apoprotein of COCP (Apo-COCP) (Synechocystis); experiment: SEC
[2] = molecular target: C-terminal OCP-related Carotenoid-binding Protein (COCP), carotenoid-bound holoform (Synechocystis); experiment: SEC
[3] = molecular target: C-terminal OCP-related Carotenoid-binding Protein (COCP), carotenoid-bound holoform (Synechocystis); experiment: cross-linking
[4] = molecular target: Synechocystis OCP^WT apoprotein (Apo-OCP) (Synechocystis) (UniProt P74102); experiment: cross-linking
Sequence of UniProt P74102 (P74102 whole entry): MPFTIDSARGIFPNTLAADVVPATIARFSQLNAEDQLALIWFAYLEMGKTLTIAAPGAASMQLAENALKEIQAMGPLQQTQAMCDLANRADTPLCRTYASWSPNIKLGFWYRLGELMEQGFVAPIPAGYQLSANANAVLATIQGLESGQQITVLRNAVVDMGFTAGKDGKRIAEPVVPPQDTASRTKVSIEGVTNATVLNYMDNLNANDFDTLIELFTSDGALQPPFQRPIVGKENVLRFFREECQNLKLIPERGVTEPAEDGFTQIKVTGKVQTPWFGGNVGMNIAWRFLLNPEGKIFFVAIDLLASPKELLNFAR

[5] = molecular target: COCP with an Ala substitution of Trp-288 (COCP-W288A), carotenoid-bound holoform (Synechocystis); experiment: SEC
[6] = molecular target: Synechocystis OCP^WT apoprotein (Apo-OCP) (Synechocystis) (UniProt P74102); experiment: SEC
[7] = molecular target: Synechocystis OCP^WT apoprotein (Apo-OCP) (Synechocystis) (UniProt P74102); experiment: SEC; remark: listed apart in the source
[8] = molecular target: Synechocystis OCP^WT apoprotein (Apo-OCP) (Synechocystis) (UniProt P74102); experiment: SEC-SAXS with right angle light scattering

Apoprotein of COCP (Apo-COCP) (domain or fragment)
stoichiometry N [1]: 2

C-terminal OCP-related Carotenoid-binding Protein (COCP), carotenoid-bound holoform (domain or fragment)
stoichiometry N [2]: 2
stoichiometry N [3]: 2
stoichiometry N (COCP subunit per Apo-OCP subunit) [4]: 1

COCP with an Ala substitution of Trp-288 (COCP-W288A), carotenoid-bound holoform (domain or fragment)
stoichiometry N [5]: 2

Synechocystis OCP^WT apoprotein (Apo-OCP) (from UniProt P74102 1-317) (natural protein)
stoichiometry N [6]: 2
stoichiometry N [7]: 2
stoichiometry N [8]: 2
